Numbering of substitutions follows the chain as printed. Names and notes keep the numbering of the source. Like-named read-outs stand apart in the source and are kept apart here. Values belong to the binder of their own block, whether it stands above or below them.
Assays:
[1] = target: T1, recombinant human C1q protein (Fitzgerald) (human, UniProt P02745 23-245; P02746 28-253; P02747 29-245, limits assumed); experiment: ELISA; test protein immobilised in serial dilution, recombinant human C1q added, anti-C1q-HRP
T1 construct: also called human recombinant complement protein, C1q

human FLT3 on AML5 cells [2] = target: T2, human FLT3 on AML5 cells (human, UniProt P36888 27-993); experiment: cell-based or functional assay
T2 sequence (looked up): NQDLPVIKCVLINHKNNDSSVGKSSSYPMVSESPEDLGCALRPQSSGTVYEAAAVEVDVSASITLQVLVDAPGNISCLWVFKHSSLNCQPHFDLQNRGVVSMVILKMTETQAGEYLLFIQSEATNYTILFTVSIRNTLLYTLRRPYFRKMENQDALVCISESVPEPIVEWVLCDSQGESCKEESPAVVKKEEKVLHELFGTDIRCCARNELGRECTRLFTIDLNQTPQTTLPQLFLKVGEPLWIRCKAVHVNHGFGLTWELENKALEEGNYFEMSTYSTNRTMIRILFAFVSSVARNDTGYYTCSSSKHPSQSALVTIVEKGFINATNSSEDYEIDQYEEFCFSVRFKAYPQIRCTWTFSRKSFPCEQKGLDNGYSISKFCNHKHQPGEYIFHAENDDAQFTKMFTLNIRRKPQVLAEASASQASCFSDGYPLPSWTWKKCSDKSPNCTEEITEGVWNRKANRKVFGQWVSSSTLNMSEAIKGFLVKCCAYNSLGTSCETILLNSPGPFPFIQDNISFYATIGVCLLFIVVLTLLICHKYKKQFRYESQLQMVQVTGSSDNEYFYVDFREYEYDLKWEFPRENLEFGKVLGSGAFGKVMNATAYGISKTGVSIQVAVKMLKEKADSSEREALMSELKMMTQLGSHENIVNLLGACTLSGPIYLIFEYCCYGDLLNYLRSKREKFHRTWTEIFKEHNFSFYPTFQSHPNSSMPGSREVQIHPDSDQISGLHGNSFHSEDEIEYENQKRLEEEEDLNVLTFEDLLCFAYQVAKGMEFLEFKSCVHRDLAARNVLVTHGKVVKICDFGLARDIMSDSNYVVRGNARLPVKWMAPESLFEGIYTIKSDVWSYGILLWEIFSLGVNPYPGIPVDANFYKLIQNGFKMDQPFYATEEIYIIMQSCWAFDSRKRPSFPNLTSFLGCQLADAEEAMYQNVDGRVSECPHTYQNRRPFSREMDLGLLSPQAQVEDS

human FLT3 on AML5 cells [3] = target: T2, human FLT3 on AML5 cells; experiment: cell-based or functional assay; remark: listed apart in the source
[4] = target: T1, recombinant human C1q protein …; experiment: ELISA; test protein immobilised in serial dilution, recombinant human C1q added, anti-C1q-HRP; remark: listed apart in the source
human FLT3 on AML5 cells [5] = target: T2, human FLT3 on AML5 cells; experiment: cell-based or functional assay; remark: listed apart in the source
human FLT3 on AML5 cells [6] = target: T2, human FLT3 on AML5 cells; experiment: cell-based or functional assay; remark: listed apart in the source
human FLT3 on AML5 cells [7] = target: T2, human FLT3 on AML5 cells; experiment: cell-based or functional assay; remark: listed apart in the source

T1 sequence (P02745 23-245 limits assumed, chain 1 of 3): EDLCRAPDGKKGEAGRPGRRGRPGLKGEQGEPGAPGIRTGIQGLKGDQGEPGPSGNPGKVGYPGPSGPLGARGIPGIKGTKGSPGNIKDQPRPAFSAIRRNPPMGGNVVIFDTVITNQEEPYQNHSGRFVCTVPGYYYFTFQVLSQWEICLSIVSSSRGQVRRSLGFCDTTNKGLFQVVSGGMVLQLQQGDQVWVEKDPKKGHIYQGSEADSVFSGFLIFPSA
T1 sequence (P02746 28-253 limits assumed, chain 2 of 3): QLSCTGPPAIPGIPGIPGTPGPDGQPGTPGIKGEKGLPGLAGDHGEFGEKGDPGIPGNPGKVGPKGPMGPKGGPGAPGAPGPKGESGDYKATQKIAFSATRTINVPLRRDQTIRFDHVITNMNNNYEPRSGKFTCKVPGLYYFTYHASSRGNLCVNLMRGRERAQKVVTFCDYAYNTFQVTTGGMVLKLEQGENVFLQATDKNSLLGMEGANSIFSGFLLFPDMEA
T1 sequence (P02747 29-245 limits assumed, chain 3 of 3): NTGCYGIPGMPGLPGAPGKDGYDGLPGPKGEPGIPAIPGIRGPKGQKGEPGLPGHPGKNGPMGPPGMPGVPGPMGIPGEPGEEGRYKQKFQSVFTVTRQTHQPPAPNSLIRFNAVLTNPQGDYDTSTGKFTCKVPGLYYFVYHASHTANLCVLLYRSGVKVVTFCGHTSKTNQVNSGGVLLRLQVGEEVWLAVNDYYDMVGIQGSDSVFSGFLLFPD

B2: human FLT3-ligand (Δ5 amino acid) human IgG4 (S228P/F234A/L235A/M252Y/S254T/T256E) fusion protein (SEQ ID NO:14) (Fc fusion)
chain: TQDCSFQHSPISSDFAVKIRELSDYLLQDYPVTVASNLQDEELCGGLWRLVLAQRWMERLKTVAGSKMQGLLERVNTEIHFVTKCAFQPPPSCLRFVQTNISRLLQETSEQLVALKPWITRQNFSRCLELQCQPDSSTLPPPWSPRPLEATAESKYGPPCPPCPAPEAAGGPSVFLFPPKPKDTLYITREPEVTCVVVDVSQEDPEVQFNWYVDGVEVHNAKTKPREEQFNSTYRVVSVLTVLHQDWLNGKEYKCKVSNKGLPSSIEKTISKAKGQPREPQVYTLPPSQEEMTKNQVSLTCLVKGFYPSDIAVEWESNGQPENNYKTTPPVLDSDGSFFLYSRLTVDKSRWQEGNVFSCSVMHEALHNHYTQKSLSLSLGK
notes: also called FLT3L ECD (Δ C-term 5aa (PTAPQ))-hG4 (S228P/F234A/L235A/M252Y/S254T/T256E)
EC50 (nM), AML5 Proliferation Assay (human FLT3 on AML5 cells [3]): 0.046 nM
binding result [4]: no binding (tested: 94 nM (top of the titration))

B3: human FLT3-ligand human hingeless IgG1 fusion protein (SEQ ID NO:1) (Fc fusion)
chain: TQDCSFQHSPISSDFAVKIRELSDYLLQDYPVTVASNLQDEELCGGLWRLVLAQRWMERLKTVAGSKMQGLLERVNTEIHFVTKCAFQPPPSCLRFVQTNISRLLQETSEQLVALKPWITRQNFSRCLELQCQPDSSTLPPPWSPRPLEATAPTAPQGGPSVFLFPPKPKDTLMISRTPEVTCVVVDVSHEDPEVKFNWYVDGVEVHNAKTKPREEQYNSTYRVVSVLTVLHQDWLNGKEYKCKVSNKALPAPIEKTISKAKGQPREPQVYTLPPSREEMTKNQVSLTCLVKGFYPSDIAVEWESNGQPENNYKTTPPVLDSDGSFFLYSKLTVDKSRWQQGNVFSCSVMHEALHNHYTQKSLSLSPGK
notes: Made in Expi293 or ExpiCHO; also called FLT3L ECD-hingeless hG1; hFLT3L ECD
EC50 (nM), AML5 Proliferation Assay (human FLT3 on AML5 cells [3]): 0.05 nM
EC50 (nM), Inducing Proliferation of AML5 Cells (human FLT3 on AML5 cells [5]): 0.078 nM
binding result [1]: no binding (tested: 94 nM (top of the titration))
EC50 (nM), Inducing Proliferation of AML5 Cells (human FLT3 on AML5 cells [6]): 0.034 nM
EC50 (nM), Inducing Proliferation of AML5 Cells (human FLT3 on AML5 cells [7]): 0.04 nM
EC50 (nM), AML5 Proliferation Assay (human FLT3 on AML5 cells [2]): 0.08 nM

B5: human FLT3-ligand human hingeless IgG1 (M252Y/S254T/T256E) fusion protein (SEQ ID NO:9) (Fc fusion)
chain: B3 chain with M174Y, S176T, T178E
notes: also called FLT3L ECD-hingeless hG1 (M252Y/S254T/T256E)
EC50 (nM), AML5 Proliferation Assay (human FLT3 on AML5 cells [3]): 0.037 nM
binding result [4]: no binding (tested: 94 nM (top of the titration))

Second part, led by results:

EC50 (nM), AML5 Proliferation Assay (human FLT3 on AML5 cells [2]): 0.071 nM
B1: human FLT3-ligand (Δ10 amino acid) human hingeless IgG1 fusion protein (SEQ ID NO:7) (Fc fusion)
chain: TQDCSFQHSPISSDFAVKIRELSDYLLQDYPVTVASNLQDEELCGGLWRLVLAQRWMERLKTVAGSKMQGLLERVNTEIHFVTKCAFQPPPSCLRFVQTNISRLLQETSEQLVALKPWITRQNFSRCLELQCQPDSSTLPPPWSPRPGGPSVFLFPPKPKDTLMISRTPEVTCVVVDVSHEDPEVKFNWYVDGVEVHNAKTKPREEQYNSTYRVVSVLTVLHQDWLNGKEYKCKVSNKALPAPIEKTISKAKGQPREPQVYTLPPSREEMTKNQVSLTCLVKGFYPSDIAVEWESNGQPENNYKTTPPVLDSDGSFFLYSKLTVDKSRWQQGNVFSCSVMHEALHNHYTQKSLSLSPGK
binding result [1]: no binding (tested: 94 nM (top of the titration))

EC50 (nM), AML5 Proliferation Assay (human FLT3 on AML5 cells [2]): 0.078 nM
B4: human FLT3-ligand (S128A/S151A) human hingeless IgG1 fusion protein (SEQ ID NO:5) (Fc fusion)
chain: B3 chain with S102A, S125A
notes: also called Aglyco-FLT3L ECD (S128A/S151A) hingeless hG1
binding result [1]: no binding (tested: 94 nM (top of the titration))

EC50 (nM), AML5 Proliferation Assay (human FLT3 on AML5 cells [2]): 0.083 nM
B6: human FLT3-ligand (Δ5 amino acid) human hingeless IgG1 fusion protein (SEQ ID NO:2) (Fc fusion)
chain: TQDCSFQHSPISSDFAVKIRELSDYLLQDYPVTVASNLQDEELCGGLWRLVLAQRWMERLKTVAGSKMQGLLERVNTEIHFVTKCAFQPPPSCLRFVQTNISRLLQETSEQLVALKPWITRQNFSRCLELQCQPDSSTLPPPWSPRPLEATAGGPSVFLFPPKPKDTLMISRTPEVTCVVVDVSHEDPEVKFNWYVDGVEVHNAKTKPREEQYNSTYRVVSVLTVLHQDWLNGKEYKCKVSNKALPAPIEKTISKAKGQPREPQVYTLPPSREEMTKNQVSLTCLVKGFYPSDIAVEWESNGQPENNYKTTPPVLDSDGSFFLYSKLTVDKSRWQQGNVFSCSVMHEALHNHYTQKSLSLSPGK
notes: also called FLT3L ECD (Δ C-term 5aa (PTAPQ))-hingeless hG1
binding result [1]: no binding (tested: 94 nM (top of the titration))
